Test results taken from the supplement of paper PMC9112550, “Optimization of the antimicrobial peptide Bac7 by deep mutational scanning” (BMC Biology, 2022).

Test system: Escherichia coli TOP10
Assay: shrunken log2 fold change of peptide-encoding DNA abundance (4.5 h post-induction vs induction); higher = less antimicrobial activity (less host growth inhibition)
Settings: time post-induction: 4.5 h; library: site-saturation at positions 5, 18, 19, 20
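Further: peptides expressed intracellularly from a pBAD plasmid library in pooled LB shake-flask culture, induced with 0.3% L-arabinose, DNA abundance read by NGS, three biological replicates, DESeq2 with apeglm shrinkage.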

Sequence | shrunken log2 fold change
RRIRARPPRLPRPRPRPMYYPRP | -0.433
RRIRWRPPRLPRPRPRPTNTPRP | -0.284
RRIRTRPPRLPRPRPRPFKFPRP | -0.0637
RRIRLRPPRLPRPRPRPFKVPRP | 0.0321
RRIRARPPRLPRPRPRPTDHPRP | 0.0934
RRIRNRPPRLPRPRPRPQADPRP | -0.0176
RRIRERPPRLPRPRPRPSMPPRP | -0.484
RRIRKRPPRLPRPRPRPNRMPRP | 0.00972
RRIRHRPPRLPRPRPRPPQKPRP | 0.0508
RRIRYRPPRLPRPRPRPLFRPRP | -0.66
RRIRCRPPRLPRPRPRPWDWPRP | 0.313
RRIRWRPPRLPRPRPRPWPFPRP | 0.481
RRIRFRPPRLPRPRPRPPEHPRP | 0.682
RRIRYRPPRLPRPRPRPHQDPRP | -0.0582
RRIRCRPPRLPRPRPRPHQCPRP | -0.24
RRIRWRPPRLPRPRPRPHELPRP | -0.0349
RRIRWRPPRLPRPRPRPASCPRP | 0.241
RRIRRRPPRLPRPRPRPVKFPRP | 0.0517
RRIRERPPRLPRPRPRPNYLPRP | -0.0974
RRIRTRPPRLPRPRPRPWPLPRP | 0.0506
RRIRKRPPRLPRPRPRPYACPRP | -0.0471
RRIRTRPPRLPRPRPRPCNTPRP | -0.21

Sequence | shrunken log2 fold change
RRIRLRPPRLPRPRPRPENSPRP | 0.000683
RRIRRRPPRLPRPRPRPYFVPRP | -0.381
RRIRNRPPRLPRPRPRPHDLPRP | 0.0667
RRIRRRPPRLPRPRPRPRAFPRP | 0.605
RRIRVRPPRLPRPRPRPQVGPRP | 0.251
RRIRRRPPRLPRPRPRPGHNPRP | 0.06
RRIRQRPPRLPRPRPRPSSQPRP | -0.395
RRIRFRPPRLPRPRPRPKVCPRP | 0.0321
RRIRWRPPRLPRPRPRPCQAPRP | 0.201
RRIRPRPPRLPRPRPRPHVGPRP | -0.0279
RRIRTRPPRLPRPRPRPGVFPRP | -0.0409
RRIRMRPPRLPRPRPRPCMEPRP | 0.112
RRIRIRPPRLPRPRPRPEWVPRP | 0.00655
RRIRFRPPRLPRPRPRPWWPPRP | 0.0712
RRIRDRPPRLPRPRPRPRSRPRP | 0.00639
RRIRARPPRLPRPRPRPPAVPRP | 0.927
RRIRMRPPRLPRPRPRPAENPRP | 0.084
RRIRLRPPRLPRPRPRPHIPPRP | -0.664
RRIRNRPPRLPRPRPRPCPSPRP | -0.0371
RRIRRRPPRLPRPRPRPRPCPRP | 0.384
RRIRLRPPRLPRPRPRPLAYPRP | -0.264
RRIRNRPPRLPRPRPRPDFTPRP | 0.0959

Sequence | shrunken log2 fold change
RRIRDRPPRLPRPRPRPSDGPRP | 0.166
RRIRNRPPRLPRPRPRPNPFPRP | -0.0489
RRIRSRPPRLPRPRPRPCTWPRP | -0.125
RRIRARPPRLPRPRPRPGERPRP | 0.56
RRIRARPPRLPRPRPRPQTEPRP | 0.292
RRIRSRPPRLPRPRPRPILFPRP | -0.445
RRIRIRPPRLPRPRPRPLSKPRP | -0.901
RRIRNRPPRLPRPRPRPYACPRP | -0.167
RRIRWRPPRLPRPRPRPCLMPRP | -0.225
RRIRHRPPRLPRPRPRPISEPRP | -0.0415
RRIRYRPPRLPRPRPRPGLQPRP | -0.0156
RRIRIRPPRLPRPRPRPRQDPRP | 0.0231
RRIRARPPRLPRPRPRPYAFPRP | -0.125
RRIRSRPPRLPRPRPRPNREPRP | -0.138
RRIRKRPPRLPRPRPRPAVTPRP | 0.0318
RRIRTRPPRLPRPRPRPMMGPRP | -0.1
RRIRARPPRLPRPRPRPKPCPRP | 0.162
RRIRVRPPRLPRPRPRPDFKPRP | 0.0385
RRIRGRPPRLPRPRPRPVRWPRP | 0.965
RRIRPRPPRLPRPRPRPEEKPRP | -0.0155
RRIRKRPPRLPRPRPRPSLFPRP | 0.125
RRIRGRPPRLPRPRPRPMNMPRP | -0.318

Sequence | shrunken log2 fold change
RRIRHRPPRLPRPRPRPIHPPRP | -0.154
RRIRERPPRLPRPRPRPPLSPRP | -0.212
RRIRFRPPRLPRPRPRPRYKPRP | -0.311
RRIRVRPPRLPRPRPRPATHPRP | -0.0884
RRIRARPPRLPRPRPRPGCFPRP | 0.96
RRIRQRPPRLPRPRPRPNLTPRP | -0.432
RRIRWRPPRLPRPRPRPASPPRP | 0.131
RRIRRRPPRLPRPRPRPSQVPRP | 0.0533
RRIRDRPPRLPRPRPRPYVGPRP | -0.0122
RRIRMRPPRLPRPRPRPCISPRP | 0.00253
RRIRARPPRLPRPRPRPRDRPRP | 0.706
RRIRGRPPRLPRPRPRPVLLPRP | 0.122
RRIRTRPPRLPRPRPRPVGKPRP | 0.0504
RRIRFRPPRLPRPRPRPERVPRP | 0.094
RRIRRRPPRLPRPRPRPLDRPRP | -0.00997
RRIRVRPPRLPRPRPRPEHNPRP | -0.244
RRIRWRPPRLPRPRPRPCDGPRP | 0.0333
RRIRHRPPRLPRPRPRPTDAPRP | 0.0615
RRIRNRPPRLPRPRPRPMRWPRP | 0.892
RRIRKRPPRLPRPRPRPAIKPRP | 0.191
RRIRTRPPRLPRPRPRPTLWPRP | 0.475
RRIRTRPPRLPRPRPRPAVCPRP | 0.712

Sequence | shrunken log2 fold change
RRIRMRPPRLPRPRPRPGPTPRP | 1.54
RRIRIRPPRLPRPRPRPEGMPRP | -0.0787
RRIRIRPPRLPRPRPRPWVSPRP | -0.119
RRIRLRPPRLPRPRPRPDHDPRP | -0.0947
RRIRFRPPRLPRPRPRPTMKPRP | -0.178
RRIRPRPPRLPRPRPRPQDSPRP | -0.196
RRIRQRPPRLPRPRPRPQFPPRP | -0.202
RRIRWRPPRLPRPRPRPRFKPRP | 0.0187
RRIRQRPPRLPRPRPRPIQLPRP | -0.333
RRIRGRPPRLPRPRPRPTAVPRP | 2.41
RRIRARPPRLPRPRPRPTSNPRP | 0.00789
RRIRRRPPRLPRPRPRPDFFPRP | -0.00974
RRIRNRPPRLPRPRPRPRHTPRP | -0.096
RRIRKRPPRLPRPRPRPVQVPRP | -0.0596
RRIRTRPPRLPRPRPRPVWQPRP | 0.256
RRIRKRPPRLPRPRPRPEGVPRP | 1.44
RRIRLRPPRLPRPRPRPPIGPRP | 0.142
RRIRQRPPRLPRPRPRPSAWPRP | 0.19
RRIRGRPPRLPRPRPRPSIVPRP | 0.124
RRIRWRPPRLPRPRPRPMARPRP | 0.00968
RRIRMRPPRLPRPRPRPFARPRP | 0.412
